Data set [1] in a line: in vitro stability in pooled human plasma. Particulars: 1 to 10 μM; GLP-1 7-36 amide at 4 h, analogs at 8 h.
Description: The stability test was carried out at Climax Laboratories, Inc. (San Jose, Calif.).
Data set [2] in a line: CMC of Polysorbate 20 in F58 buffer pH 7.7 with added ALT-801 by surface tensiometry. In kind it is physicochemical. The text has this: CMC shifts are simply calculated as CMC in the presence of the ALT-801 less the CMC for the surfactant alone in solution.
For the next data set, the target named is T1, human GLP-1R (Homo sapiens, UniProt P43220).
T1 construct: host or cells: CHO-K1
T1 sequence (P43220 24-463): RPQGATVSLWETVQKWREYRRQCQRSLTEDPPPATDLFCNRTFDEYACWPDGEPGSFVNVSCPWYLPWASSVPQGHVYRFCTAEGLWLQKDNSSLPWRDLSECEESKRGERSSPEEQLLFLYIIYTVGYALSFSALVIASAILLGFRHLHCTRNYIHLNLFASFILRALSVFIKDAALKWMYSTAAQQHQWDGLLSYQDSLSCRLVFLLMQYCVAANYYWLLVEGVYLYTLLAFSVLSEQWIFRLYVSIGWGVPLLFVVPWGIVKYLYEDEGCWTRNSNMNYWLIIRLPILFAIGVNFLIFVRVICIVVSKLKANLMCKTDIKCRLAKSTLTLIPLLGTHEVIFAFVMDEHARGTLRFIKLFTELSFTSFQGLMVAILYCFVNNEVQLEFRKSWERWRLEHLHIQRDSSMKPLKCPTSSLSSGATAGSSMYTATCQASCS
Description: cAMP receptor activation assay, human GLP-1R cloned into CHO cells (DiscoverX LeadHunter / cAMP Hunter). In kind it is cell-based. To be noted: for Selectivity Ratio GLP-1R vs GCGR: SR = GCGR EC50/GLP-1 EC50, 0.1% BSA; for EC50: cAMP, CHO cells, 0.1% BSA containing buffers, read-out: pEC50 (SE) hu GLP-1 (converted).

The next data set concerns the target GCGR (Homo sapiens, UniProt P47871). The data set is described as follows: cAMP receptor activation assay, human GCGR cloned into CHO cells (DiscoverX LeadHunter / cAMP Hunter). To be noted: cAMP, CHO cells, 0.1% BSA containing buffers; read-out: pEC50 (SE) huGCGR (converted). The format is cell-based. More on the design: host or cells: CHO-K1.
Data set [3] in a line: pharmacokinetics in Gottingen minipigs (cassette sc dosing, 20 nmol/kg). In kind it is in vivo, Gottingen minipig. To be noted: 20 nmol/kg sc; for plasma levels compared to liraglutide: analogue 2 at 4 h, 4 at 2-12 h, 5 at 2, 12, 24 h. The source says: This study uses a cassette style dosing, to minimize large animal usage, but with injection subcutaneously at separate sites to preclude each compound's influencing uptake of another compound. A total of two male Gottingen minipigs were assigned to study. The animals were pair housed in pens on raised floor caging. The animals weighed between approximately 11-15 kg at transfer and approximately 5-8 months of age. The same animals were to be used for multiple phases, following a minimum 1-week washout period. To facilitate dosing and to ensure animal safety during the dosing procedure, animals were sedated with Telazol (IM, 4-6 mg/kg) prior to dosing. Dosing was subcutaneous via bolus injection between the skin and underlying layers of tissue in the ventral region of the animal. A total of […] sites were used for each phase with different compounds dosed at each of the 4 sites. Compounds are formulated in saline containing 0.2% BSA […] at pH 3.5. Each stock solution was diluted with normal saline (pH 7.4) to the required final conc and sterile filtered. Dosing is at 20 nmol/kg. Blood samples were collected pre-dose and at 2, 4, 6, 8, 12, 24, 36, 48, 72 and 96-hours post-dose. At each blood collection time point a 1 mL sample is taken from the jugular vein into K2EDTA tubes on ice before processing to plasma by centrifugation. The plasma samples containing the 4 test compounds were sent to Climax Labs for separation and quantitation by LC-MS/MS as noted below (2.5.3).
Analysis was carried out at Climax Laboratories (San Jose, Calif.) on an API-4000 Mass Spectrometer, ESI positive, MRM scan. Samples were loaded on a Shimadzu HPLC/CTC Autosampler with an ACE C4 column (2.1×50 mm, 5 μm). Elution was by gradient from aqueous 0.5% formic acid, 5 mM NH4OAc to 0.5% formic acid in CH3CN/H2O (9:1). […] After transfer to a 96 well plate, a 40 μL sample was injected and the individual compound peaks were quantitated with standard curves. […] The quantitation limit is 1-2 ng/mL, depending on analog structure.

The conditions of data set [4]: clinical studies, cited from earlier work.
Data set [5] deals with plasma proteins of human. Description: ultracentrifugation of spiked plasma (15000 ng/mL), 37 C, 6 h, LC-MS of supernatant; supernatant value BLQ, extrapolated.
For data set [6], the target named is plasma proteins of dog. The data set is described as above.
For data set [7], the target named is bovine serum albumin (BSA) (bovine, UniProt P02769 25-607). Description: method not stated (data not shown).
bovine serum albumin (BSA), sequence (P02769 25-607 limits assumed): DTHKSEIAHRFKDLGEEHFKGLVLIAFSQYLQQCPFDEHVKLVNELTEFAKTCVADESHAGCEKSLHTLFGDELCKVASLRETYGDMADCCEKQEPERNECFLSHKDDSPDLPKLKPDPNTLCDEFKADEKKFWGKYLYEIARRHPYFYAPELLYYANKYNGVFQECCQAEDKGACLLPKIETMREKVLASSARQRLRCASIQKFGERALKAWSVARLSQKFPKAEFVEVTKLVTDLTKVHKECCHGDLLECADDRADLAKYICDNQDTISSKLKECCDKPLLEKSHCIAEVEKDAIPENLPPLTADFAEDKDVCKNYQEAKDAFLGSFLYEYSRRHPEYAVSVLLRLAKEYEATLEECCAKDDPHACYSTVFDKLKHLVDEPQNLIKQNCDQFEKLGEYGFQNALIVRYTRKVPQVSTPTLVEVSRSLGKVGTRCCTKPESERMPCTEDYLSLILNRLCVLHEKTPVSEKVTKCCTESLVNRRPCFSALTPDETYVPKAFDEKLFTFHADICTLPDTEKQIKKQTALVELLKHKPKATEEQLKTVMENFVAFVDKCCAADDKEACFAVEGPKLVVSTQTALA
Data set [8] addresses plasma proteins of monkey. The data set is described as follows: ultracentrifugation of spiked plasma (15000 ng/mL), 37 C, 6 h, LC-MS of supernatant.
Data set [9] deals with plasma proteins of human. The data set is described as above.
Data set [10] has as its target plasma proteins of dog. The data set is described as above.
The next data set addresses plasma proteins of rat. The data set is described as above.
Data set [11] has as its target human glucagon-like peptide 1 receptor (GLP-1R) (human, UniProt P43220 24-463). The data set is described as follows: cell-based or functional assay.
Data set [12] has as its target human glucagon receptor (GCGR) (human, UniProt P47871 26-477). The data set is described as follows: cell-based or functional assay.

Values joined by “and” are separate entries in the source; they are usually repeats but may differ in a detail not shown here. Identical values can stand only once. “Also recorded” adds a separate entry of the source. Positions of bridges follow the written chain, without caps; N, C: chain ends. Non-standard residues stand in square brackets, D forms with d. No end group written: not given here. GC8 = D-glucoside-derived uronic acid with C8 alkyl chain; Aib = CC(C)(N)C(=O)O Some results are limits rather than exact numbers.

human glucagon-like peptide 1 receptor (GLP-1R), sequence (P43220 24-463): as the sequence (P43220 24-463) above
Description for human GLP-1R: Cellular assays were carried out using standard cellular assays (DiscoveRx, LeadHunter assays) using readout of cAMP stimulation or arrestin activation. Compounds were weighed precisely in an amount of approximately 1 mg and shipped to DiscoverX (Fremont, Calif.) for dilution and assay. […] Assays were carried out in the presence of 0.1% ovalbumin. […] Use of 0.1% ovalbumin can avoid this problem.
Assays were carried out in the presence of 0.1% ovalbumin. […] Use of 0.1% ovalbumin can avoid this problem.
Receptor activation assays were performed at DiscoverX laboratories (Fremont, Calif.) using human GLP-1R and GCGR cloned into Chinese Hamster Ovary (CHO) cells (LeadHunter Discovery Services; assay product 86-0007D cAMP Hunter™ using huGLP1R and huGCGR; whole cell cAMP accumulation assays; cell lines used were cAMP Hunter™ CHO-K1 GCGR Gs Cell Line, catalog 95-0042C2 and cAMP Hunter™ CHO-K1 GLP1 Gs Cell Line, catalog 95-0062C2; readout of accumulated cAMP was made using readout HitHunter cAMP XS+ assay). Cell lines are maintained at DiscoverX and were incubated with test agents for 30 m at 37° C. for accumulation of cAMP. […] Results described herein are from single assays performed on cells in duplicate and data were replotted in Prism 5 to provide pEC50 (SE) data.
In vitro data are presented as pEC50 (SE) determined in Prism 5 by nonlinear regression analysis of the raw fluorescence data normalized by corresponding response to internal standards (see Supporting Information for data plots).

Turning to `CC[C@H](C)[C@H](NC(=O)[C@H](Cc1ccccc1)NC(=O)[C@H](CCC(=O)O)NC(=O)[C@H](CCCCN)NC(=O)[C@H](C)NC(=O)[C@H](C)NC(=O)[C@H](CCC(N)=O)NC(=O)CNC(=O)[C@H](CCC(=O)O)NC(=O)[C@H](CC(C)C)NC(=O)[C@H](Cc1ccc(O)cc1)NC(=O)[C@H](CO)NC(=O)[C@H](CO)NC(=O)[C@@H](NC(=O)[C@H](CC(=O)O)NC(=O)[C@H](CO)NC(=O)[C@@H](NC(=O)[C@H](Cc1ccccc1)NC(=O)[C@@H](NC(=O)CNC(=O)[C@H](CCC(=O)O)NC(=O)[C@H](C)NC(=O)[C@@H](N)Cc1c[nH]cn1)[C@@H](C)O)[C@@H](C)O)C(C)C)C(=O)N[C@@H](C)C(=O)N[C@@H](Cc1c[nH]c2ccccc12)C(=O)N[C@@H](CC(C)C)C(=O)N[C@H](C(=O)N[C@@H](CCCCN)C(=O)NCC(=O)N[C@@H](CCCNC(=N)N)C(N)=O)C(C)C` [GLP-1 7-36 amide], in data set [1], the “stability in pooled human plasma (compound level remaining)” value was “rapidly destroyed to below quantitation limit; also recorded: rapid destruction”.

Turning to Polysorbate 20, the “Polysorbate 20 CMC Value, No ALT-801, Average” value in data set [2] came out at 0.722 mg/mL. The “Polysorbate 20 CMC Value, No ALT-801” value in data set [2] (Test # 1 and 2) was 0.721 mg/mL and 0.722 mg/mL.

As to `CCCCCCCCCCO[C@@H]1O[C@H](C(=O)NCCCC[C@H](NC(=O)[C@@H](NC(=O)[C@H](Cc2ccccc2)NC(=O)[C@H](CCC(=O)O)NC(=O)[C@@H]2CCCCNC(=O)CC[C@H](NC(=O)[C@H](CC(=O)O)NC(=O)[C@H](CC(C)C)NC(=O)[C@H](Cc3ccc(O)cc3)NC(=O)[C@H](CCCCN)NC(=O)[C@H](CO)NC(=O)[C@H](Cc3ccc(O)cc3)NC(=O)[C@H](CC(=O)O)NC(=O)[C@H](CO)NC(=O)[C@@H](NC(=O)[C@H](Cc3ccccc3)NC(=O)[C@@H](NC(=O)CNC(=O)[C@H](CCC(N)=O)NC(=O)C(C)(C)NC(=O)[C@@H](N)Cc3c[nH]cn3)[C@@H](C)O)[C@@H](C)O)C(=O)N[C@@H](CCC(N)=O)C(=O)N[C@@H](C)C(=O)N[C@@H](C)C(=O)N2)[C@@H](C)CC)C(=O)N[C@@H](Cc2c[nH]c3ccccc23)C(=O)N[C@@H](CC(C)C)C(=O)N[C@@H](CC(C)C)C(=O)N[C@@H](CCC(N)=O)C(=O)N[C@H](C(N)=O)[C@@H](C)O)[C@@H](O)[C@H](O)[C@H]1O` [analogue 2], on human GLP-1R, the “Selectivity Ratio GLP-1R vs GCGR” value stood at 2 and the EC50 was 0.0126 nM. In addition, the EC50 on GCGR is 0.02 nM. Moreover, the “plasma levels compared to liraglutide” value in [3] is “Significantly higher plasma levels”.

Turning to `CCCCCCCCCCCCCCO[C@@H]1O[C@H](C(=O)NCCCC[C@H](NC(=O)[C@@H](NC(=O)[C@H](Cc2ccccc2)NC(=O)[C@H](CCC(=O)O)NC(=O)[C@@H]2CCCCNC(=O)CC[C@H](NC(=O)[C@H](CC(=O)O)NC(=O)[C@H](CC(C)C)NC(=O)[C@H](Cc3ccc(O)cc3)NC(=O)[C@H](CCCCN)NC(=O)[C@H](CO)NC(=O)[C@H](Cc3ccc(O)cc3)NC(=O)[C@H](CC(=O)O)NC(=O)[C@H](CO)NC(=O)[C@@H](NC(=O)[C@H](Cc3ccccc3)NC(=O)[C@@H](NC(=O)CNC(=O)[C@H](CCC(N)=O)NC(=O)C(C)(C)NC(=O)[C@@H](N)Cc3c[nH]cn3)[C@@H](C)O)[C@@H](C)O)C(=O)N[C@@H](CCC(N)=O)C(=O)N[C@@H](C)C(=O)N[C@@H](C)C(=O)N2)[C@@H](C)CC)C(=O)N[C@@H](Cc2c[nH]c3ccccc23)C(=O)N[C@@H](CC(C)C)C(=O)N[C@@H](CC(C)C)C(=O)N[C@@H](CCC(N)=O)C(=O)N[C@H](C(N)=O)[C@@H](C)O)[C@@H](O)[C@H](O)[C@H]1O` [analogue 4], on human GLP-1R, the “Selectivity Ratio GLP-1R vs GCGR” value is 2 and the EC50 was 0.0158 nM. Further, the EC50 on GCGR is 0.0302 nM. In data set [3], the “Cmax and PK profiles” value is “optimal”; the “plasma levels compared to liraglutide” value is “Significantly higher plasma levels”.

As for `CCCCCCCCCCCCCCCC(=O)N[C@@H](CCC(=O)NCCCC[C@H](NC(=O)[C@H](CC(=O)O)NC(=O)[C@H](CO)NC(=O)[C@@H](NC(=O)[C@H](Cc1ccccc1)NC(=O)[C@@H](NC(=O)CNC(=O)[C@H](CCC(N)=O)NC(=O)[C@H](CO)NC(=O)[C@@H](N)Cc1c[nH]cn1)[C@@H](C)O)[C@@H](C)O)C(=O)N[C@@H](CO)C(=O)N[C@@H](CCC(=O)O)C(=O)N[C@@H](Cc1ccc(O)cc1)C(=O)N[C@@H](CC(C)C)C(=O)N[C@@H](CC(=O)O)C(=O)N[C@@H](CO)C(=O)N[C@@H](CCC(=O)O)C(=O)N[C@@H](CCCNC(=N)N)C(=O)N[C@@H](C)C(=O)N[C@@H](CCCNC(=N)N)C(=O)N[C@@H](CC(=O)O)C(=O)N[C@@H](Cc1ccccc1)C(=O)N[C@H](C(=O)N[C@@H](C)C(=O)N[C@@H](Cc1c[nH]c2ccccc12)C(=O)N[C@@H](CC(C)C)C(=O)N[C@@H](CCC(=O)O)C(=O)N[C@@H](C)C(=O)NCC(=O)NCC(=O)O)C(C)C)C(=O)O` [cotadutide], the “reduction in liver fat content” value in data set [4] (6 weeks) is 39%. Moreover, the “weight loss over 26 weeks” value in data set [4] was 5.4%.

B1: EU-A1873 (SEQ ID NO: 1) (peptide)
peptide: HXQGTFTSDYSKYLDEKAAKEFIQWLLQT
modifications: Aib at 2; side chain lactam between Glu16 and Lys20; Lys17 acylated with Z17CO2H / GC18c (1-(17-carboxyheptadecyloxy) beta-D-glucuronyl); C-terminal amide (NH2)
notes: Synthetic 29-residue peptide amide; also called ALT-801; analogue 17
Turning to B1, the Percentage of ALT-801 Bound in the data set with plasma proteins of human [5] was 99.9%; with plasma proteins of dog [6], 99.9%; in [8] it was 100%; in the data set with plasma proteins of human [9] it was 99.7%; with plasma proteins of dog [10], 99.7% and 99.8%; in the data set with plasma proteins of rat it was 99.7% and 99.8%. Moreover, the Percentage of ALT-801 Unbound in the data set with plasma proteins of human [5] is 0.117%; with plasma proteins of dog [6] it was 0.126%; with plasma proteins of human [9], 0.309%; with plasma proteins of dog [10], 0.265% and 0.223%; with plasma proteins of rat, 0.334% and 0.204% and 0.184%. Also, the “percent bound to BSA” value in data set [7] was above 99%. Further, the Percentage of ALT-801 Bound, Mean in [8] was determined as 100%; in the data set with plasma proteins of human [9] it was 99.8%; with plasma proteins of dog [10] it was 99.8%; with plasma proteins of rat, 99.8%. The Percentage of ALT-801 Unbound, Mean in [8] came out at 0.0487%; with plasma proteins of human [9], 0.213%; with plasma proteins of dog [10], 0.205%; with plasma proteins of rat it was 0.241%.

Take H[Aib]QGTFTSDYSKYLDEQAAKEFIK(GC8)WLLQT-NH2 (lactam 16-20) [Analogue 1 (SEQ ID NO: 12)]: in data set [11], the “EC50 (pM) hGLP-1R, cAMP accumulation, 0.1% BSA” value was 8 pM. The “EC50 (pM) hGCGR, cAMP accumulation, 0.1% BSA” value in [12] worked out at 20 pM.

Source of the values: patent US20210290732A1, “GLP-1R and GCGR Agonists, Formulations, and Methods of Use” (Spitfire Pharma LLC, priority 2020, published 2021).
